Source: IntAct's records for PubMed 19966303

B1: Serine/threonine-protein kinase YPK1 (Saccharomyces cerevisiae), P12688 (parent)
chain: MYSWKSKFKFGKSKEEKEAKHSGFFHSSKKEEQQNNQATAGEHDASITRSSLDRKGTINPSNSSVVPVRVSYDASSSTSTVRDSNGGNSENTNSSQNLDETANIGSTGTPNDATSSSGMMTIKVYNGDDFILPFPITSSEQILNKLLASGVPPPHKEISKEVDALIAQLSRVQIKNQGPADEDLISSESAAKFIPSTIMLPGSSTLNPLLYFTIEFDNTVATIEAEYGTIAKPGFNKISTFDVTRKLPYLKIDVFARIPSILLPSKTWQQEMGLQDEKLQTIFDKINSNQDIHLDSFHLPINLSFDSAASIRLYNHHWITLDNGLGKINISIDYKPSRNKPLSIDDFDLLKVIGKGSFGKVMQVRKKDTQKVYALKAIRKSYIVSKSEVTHTLAERTVLARVDCPFIVPLKFSFQSPEKLYFVLAFINGGELFYHLQKEGRFDLSRARFYTAELLCALDNLHKLDVVYRDLKPENILLDYQGHIALCDFGLCKLNMKDDDKTDTFCGTPEYLAPELLLGLGYTKAVDWWTLGVLLYEMLTGLPPYYDEDVPKMYKKILQEPLVFPDGFDRDAKDLLIGLLSRDPTRRLGYNGADEIRNHPFFSQLSWKRLLMKGYIPPYKPAVSNSMDTSNFDEEFTREKPIDSVVDEYLSESVQKQFGGWTYVGNEQLGSSMVQGRSIR
B2: Phospholipid-transporting ATPase DNF1 (Saccharomyces cerevisiae), P32660 (parent)
chain: MSGTFHGDGHAPMSPFEDTFQFEDNSSNEDTHIAPTHFDDGATSNKYSRPQVSFNDETPKNKREDAEEFTFNDDTEYDNHSFQPTPKLNNGSGTFDDVELDNDSGEPHTNYDGMKRFRMGTKRNKKGNPIMGRSKTLKWARKNIPNPFEDFTKDDIDPGAINRAQELRTVYYNMPLPKDMIDEEGNPIMQYPRNKIRTTKYTPLTFLPKNILFQFHNFANVYFLVLIILGAFQIFGVTNPGLSAVPLVVIVIITAIKDAIEDSRRTVLDLEVNNTKTHILEGVENENVSTDNISLWRRFKKANSRLLFKFIQYCKEHLTEEGKKKRMQRKRHELRVQKTVGTSGPRSSLDSIDSYRVSADYGRPSLDYDNLEQGAGEANIVDRSLPPRTDCKFAKNYWKGVKVGDIVRIHNNDEIPADIILLSTSDTDGACYVETKNLDGETNLKVRQSLKCTNTIRTSKDIARTKFWIESEGPHSNLYTYQGNMKWRNLADGEIRNEPITINNVLLRGCTLRNTKWAMGVVMFTGGDTKIMLNSGITPTKKSRISRELNFSVVINFVLLFILCFVSGIANGVYYDKKGRSRFSYEFGTIAGSAATNGFVSFWVAVILYQSLVPISLYISVEIIKTAQAAFIYGDVLLYNAKLDYPCTPKSWNISDDLGQVEYIFSDKTGTLTQNVMEFKKCTINGVSYGRAYTEALAGLRKRQGIDVETEGRREKAEIAKDRDTMIDELRALSGNSQFYPEEVTFVSKEFVRDLKGASGEVQQRCCEHFMLALALCHSVLVEANPDNPKKLDLKAQSPDEAALVATARDVGFSFVGKTKKGLIIEMQGIQKEFEILNILEFNSSRKRMSCIVKIPGLNPGDEPRALLICKGADSIIYSRLSRQSGSNSEAILEKTALHLEQYATEGLRTLCIAQRELSWSEYEKWNEKYDIAAASLANREDELEVVADSIERELILLGGTAIEDRLQDGVPDCIELLAEAGIKLWVLTGDKVETAINIGFSCNLLNNEMELLVIKTTGDDVKEFGSEPSEIVDALLSKYLKEYFNLTGSEEEIFEAKKDHEFPKGNYAIVIDGDALKLALYGEDIRRKFLLLCKNCRAVLCCRVSPSQKAAVVKLVKDSLDVMTLAIGDGSNDVAMIQSADVGIGIAGEEGRQAVMCSDYAIGQFRYLARLVLVHGRWSYKRLAEMIPEFFYKNMIFALALFWYGIYNDFDGSYLYEYTYMMFYNLAFTSLPVIFLGILDQDVNDTISLVVPQLYRVGILRKEWNQRKFLWYMLDGLYQSIICFFFPYLVYHKNMIVTSNGLGLDHRYFVGVYVTTIAVISCNTYVLLHQYRWDWFSGLFIALSCLVVFAWTGIWSSAIASREFFKAAARIYGAPSFWAVFFVAVLFCLLPRFTYDSFQKFFYPTDVEIVREMWQHGHFDHYPPGYDPTDPNRPKVTKAGQHGEKIIEGIALSDNLGGSNYSRDSVVTEEIPMTFMHGEDGSPSGYQKQETWMTSPKETQDLLQSPQFQQAQTFGRGPSTNVRSSLDRTREQMIATNQLDNRYSVERARTSLDLPGVTNAASLIGTQQNN

Variants of: B1
Conditions: with fpk1_yeast FPK1, P53739
Target sequence in this assay (P53739 whole entry): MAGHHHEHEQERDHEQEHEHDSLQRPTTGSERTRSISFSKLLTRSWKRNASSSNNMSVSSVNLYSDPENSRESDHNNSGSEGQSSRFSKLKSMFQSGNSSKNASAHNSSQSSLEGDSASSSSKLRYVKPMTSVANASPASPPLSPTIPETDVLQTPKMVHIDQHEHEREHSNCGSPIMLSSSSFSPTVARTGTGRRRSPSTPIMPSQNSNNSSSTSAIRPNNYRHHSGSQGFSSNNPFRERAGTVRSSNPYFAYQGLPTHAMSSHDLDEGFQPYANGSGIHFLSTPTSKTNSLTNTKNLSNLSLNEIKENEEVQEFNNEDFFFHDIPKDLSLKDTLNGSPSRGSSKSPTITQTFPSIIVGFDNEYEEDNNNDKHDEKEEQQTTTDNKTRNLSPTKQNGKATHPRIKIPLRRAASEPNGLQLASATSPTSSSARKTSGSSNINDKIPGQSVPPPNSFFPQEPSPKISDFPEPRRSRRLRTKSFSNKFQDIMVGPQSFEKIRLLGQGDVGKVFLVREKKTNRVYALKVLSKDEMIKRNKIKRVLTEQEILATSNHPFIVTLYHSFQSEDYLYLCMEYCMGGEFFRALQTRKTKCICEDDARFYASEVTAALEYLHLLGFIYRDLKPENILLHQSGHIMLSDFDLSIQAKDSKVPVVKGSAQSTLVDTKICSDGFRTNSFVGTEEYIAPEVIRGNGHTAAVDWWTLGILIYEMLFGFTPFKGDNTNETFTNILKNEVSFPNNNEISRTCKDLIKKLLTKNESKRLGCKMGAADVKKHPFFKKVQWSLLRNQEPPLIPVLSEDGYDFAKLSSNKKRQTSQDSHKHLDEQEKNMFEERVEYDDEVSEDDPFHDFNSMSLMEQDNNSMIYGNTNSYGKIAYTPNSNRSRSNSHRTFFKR
In the case of S51A;S71A, the “effect of a mutation on the interaction” value is reported as “disrupting interaction”.

Variants of: B2
Conditions: with fpk1_yeast FPK1, P53739
Target sequence in this assay (P53739 whole entry): as above
For S1526A;S1552A, the “effect of a mutation on the interaction” value was “decreasing interaction”.
